In the Human Domainome abundance scans (Beltran et al. 2025):
± gives the uncertainty stated by the source.

B1: F-BAR and double SH3 domains protein 1, residues 467 to 528; numbered along this chain, Q86WN1 (parent)
chain: RALPCPAHVVFRYQAGREDELTITEGEWLEVIEEGDADEWVKARNQHGEVGFVPERYLNFPD

Variants of: B1
Test: abundance fitness (aPCA) (normalised: wild type 0, dead -1); higher = more abundant; growth selection in yeast, the domain comes from the species named
Conditions: Homo sapiens

Row | Variant | abundance fitness
1 | Y57D | -0.161 ± 0.092
2 | C5G | -0.386 ± 0.094
3 | T22K | -0.686 ± 0.13
4 | Y57M | -0.041 ± 0.063
5 | L29D | -0.642 ± 0.25
6 | V9I | -0.795 ± 0.14
7 | V9Q | -0.607 ± 0.13
8 | A2W | -0.146 ± 0.061
9 | I23Q | -0.936 ± 0.13
10 | A7L | -0.866 ± 0.086
11 | E34Y | -0.053 ± 0.14
12 | E20L | -0.769 ± 0.072
13 | D19H | -0.013 ± 0.11
14 | R17V | -0.253 ± 0.06
15 | H47E | -0.171 ± 0.078
16 | E27P | -0.811 ± 0.14
17 | E18R | -0.134 ± 0.039
18 | A43M | -0.548 ± 0.11
19 | G51H | -0.973 ± 0.38
20 | R56F | -0.164 ± 0.072
21 | R17W | -0.346 ± 0.071
22 | G35W | -0.332 ± 0.1
23 | L29K | -1.06 ± 0.26
24 | P61Y | -0.303 ± 0.17

Row | Variant | abundance fitness
25 | V9C | -0.32 ± 0.15
26 | L29I | -0.004 ± 0.14
27 | R56Y | -0.174 ± 0.078
28 | A7M | -0.938 ± 0.15
29 | E20D | -0.306 ± 0.11
30 | Q14M | -0.121 ± 0.081
31 | N59W | -0.242 ± 0.053
32 | I32L | -0.059 ± 0.051
33 | C5D | -1.04 ± 0.4
34 | H47F | -0.246 ± 0.12
35 | N59M | -0.117 ± 0.057
36 | G51N | -1.17 ± 0.44
37 | A2L | -0.007 ± 0.045
38 | R12A | 0.056 ± 0.055
39 | A43K | -0.71 ± 0.17
40 | Q14E | -0.024 ± 0.064
41 | I32A | -0.84 ± 0.1
42 | D36W | 0.006 ± 0.071
43 | Q14C | -0.363 ± 0.081
44 | Y57T | 0.07 ± 0.052
45 | Q46Y | -0.114 ± 0.092
46 | G26M | -0.701 ± 0.11
47 | V10P | -1.05 ± 0.25
48 | E39I | -0.1 ± 0.096

Row | Variant | abundance fitness
49 | D62G | -0.057 ± 0.089
50 | A37D | -0.048 ± 0.13
51 | E25K | 0.139 ± 0.074
52 | T24V | -0.041 ± 0.053
53 | D62R | -0.309 ± 0.15
54 | E30W | -0.185 ± 0.07
55 | V50T | -0.11 ± 0.078
56 | I23E | -0.833 ± 0.13
57 | H8M | -0.245 ± 0.084
58 | E34I | -0.165 ± 0.11
59 | Y13D | -0.648 ± 0.12
60 | P61S | 0.091 ± 0.052
61 | W28P | -0.113 ± 0.089
62 | L21P | -0.947 ± 0.18
63 | R1D | -0.298 ± 0.19
64 | Q14L | -0.208 ± 0.044
65 | E55Y | -0.196 ± 0.081
66 | K42W | -0.181 ± 0.083
67 | I23G | -0.588 ± 0.098
68 | E55R | 0.038 ± 0.042
69 | I32T | -0.256 ± 0.067
70 | E27L | -0.961 ± 0.12
71 | E39W | -0.227 ± 0.069
72 | L21I | -0.49 ± 0.12

Row | Variant | abundance fitness
73 | P61W | -0.174 ± 0.058
74 | A15V | -0.585 ± 0.093
75 | R56L | -0.117 ± 0.037
76 | R1I | -0.052 ± 0.11
77 | G35K | -0.126 ± 0.07
78 | N45S | -0.571 ± 0.11
79 | E33I | -0.785 ± 0.21
80 | R1C | -0.544 ± 0.091
81 | V41T | -0.609 ± 0.15
82 | P6H | -0.038 ± 0.14
83 | H47W | -0.176 ± 0.08
84 | E27R | -0.762 ± 0.099
85 | R1V | -0.519 ± 0.08
86 | G51D | -0.706 ± 0.19
87 | A43L | -0.853 ± 0.095
88 | Y13M | -0.594 ± 0.14
89 | R56G | -0.125 ± 0.061
90 | V10H | -0.158 ± 0.23
91 | D36Q | 0.073 ± 0.062
92 | W28D | -0.046 ± 0.1
93 | F52W | 0.033 ± 0.062
94 | A15L | -0.718 ± 0.085
95 | A2T | 0.184 ± 0.069
96 | A2V | 0.128 ± 0.055

Row | Variant | abundance fitness
97 | Q46N | -0.027 ± 0.17
98 | L58F | -0.902 ± 0.14
99 | W28S | -0.014 ± 0.054
100 | E18S | -0.127 ± 0.048
101 | T24S | -0.083 ± 0.051
102 | E25M | -0.297 ± 0.2
103 | H47A | 0.164 ± 0.06
104 | R12L | -0.265 ± 0.046
105 | G35Q | -0.379 ± 0.095
106 | L58H | -1.12 ± 0.32
107 | D62E | 0.114 ± 0.1
108 | K42G | -0.775 ± 0.14
109 | D36T | -0.042 ± 0.065
110 | E55G | -0.132 ± 0.055
111 | V10M | 0.005 ± 0.079
112 | K42C | -0.25 ± 0.11
113 | L3G | -0.609 ± 0.058
114 | G16D | -0.233 ± 0.12
115 | E27Q | -0.285 ± 0.088
116 | A37H | -0.005 ± 0.13
117 | Q14K | -0.078 ± 0.079
118 | A43I | -0.297 ± 0.2
119 | R44P | -0.673 ± 0.099
120 | L3M | -0.121 ± 0.085

Row | Variant | abundance fitness
121 | E55F | -0.165 ± 0.058
122 | Y13C | -0.486 ± 0.11
123 | Y57K | -0.231 ± 0.081
124 | V9M | -1.01 ± 0.2
125 | L21W | -0.648 ± 0.11
126 | E30H | -0.218 ± 0.14
127 | P61M | -0.088 ± 0.076
128 | E27C | -0.699 ± 0.14
129 | L29W | -1.01 ± 0.21
130 | L58A | -0.743 ± 0.085
131 | E18D | 0.082 ± 0.1
132 | V41H | -0.929 ± 0.23
133 | F52R | -0.063 ± 0.044
134 | A7T | -0.917 ± 0.18
135 | L3F | 0.05 ± 0.061
136 | E55V | 0.054 ± 0.05
137 | Q46R | -0.028 ± 0.047
138 | P6K | -0.219 ± 0.075
139 | A15F | -0.956 ± 0.37
140 | R56K | 0.033 ± 0.057
141 | E49C | -0.029 ± 0.095
142 | Y57F | -0.006 ± 0.06
143 | P6F | -0.285 ± 0.085
144 | Q46M | -0.088 ± 0.072

Row | Variant | abundance fitness
145 | N45Q | -0.884 ± 0.22
146 | T24R | -0.037 ± 0.059
147 | W28I | 0.026 ± 0.086
148 | K42M | -0.176 ± 0.057
149 | E33D | -0.156 ± 0.16
150 | G26F | -0.871 ± 0.2
151 | H8V | -0.349 ± 0.068
152 | T22H | -0.494 ± 0.16
153 | A43P | -0.865 ± 0.12
154 | R56A | 0.035 ± 0.06
155 | E18I | -0.389 ± 0.16
156 | Q46F | -0.207 ± 0.1
157 | R56S | 0.052 ± 0.043
158 | A2H | -0.256 ± 0.13
159 | L21D | -0.851 ± 0.35
160 | E33C | -0.05 ± 0.09
161 | P54D | -0.539 ± 0.16
162 | V9P | -0.781 ± 0.18
163 | R56D | -0.074 ± 0.11
164 | C5W | -0.399 ± 0.091
165 | I23F | -0.791 ± 0.1
166 | I32Y | -0.063 ± 0.088
167 | D62P | -0.235 ± 0.082
